Reference: PMC4954732 (2016)

Target: A. fumigatus CCAAT binding complex (CBC) consisting of HapB(230-299), HapC(40-137) and HapE(47-164) (A. fumigatus)
Assay: SPR

B1: HapX(24-158) (domain or fragment)
chain: SPSPGPGTPGSITSKEWVIPPRPKPGRKPATDTPPTKRKAQNRAAQRAFRERRAARVNELEEQIKKIEDEHEIHIAAFKEQITNLSREVEQCRSEMTWWRDRCHALEKEVSVERSAKEAIVKEFRSSLSDREAVR
Kd: 16.2 nM
